Laboratory results published in US7160981B2, “Peptide antagonists of DP transcription factors” (Prolifix Limited, priority 1996, dated 2007).
“Also recorded” adds a separate entry of the source.

T1: pRb / adenovirus E1a protein interaction (Homo sapiens, UniProt P06400)
T1 construct: GST; made in house; host or cells: pRb fusion purified on glutathione Sepharose; E1a made by in vitro translation
T1 sequence (P06400 1-928): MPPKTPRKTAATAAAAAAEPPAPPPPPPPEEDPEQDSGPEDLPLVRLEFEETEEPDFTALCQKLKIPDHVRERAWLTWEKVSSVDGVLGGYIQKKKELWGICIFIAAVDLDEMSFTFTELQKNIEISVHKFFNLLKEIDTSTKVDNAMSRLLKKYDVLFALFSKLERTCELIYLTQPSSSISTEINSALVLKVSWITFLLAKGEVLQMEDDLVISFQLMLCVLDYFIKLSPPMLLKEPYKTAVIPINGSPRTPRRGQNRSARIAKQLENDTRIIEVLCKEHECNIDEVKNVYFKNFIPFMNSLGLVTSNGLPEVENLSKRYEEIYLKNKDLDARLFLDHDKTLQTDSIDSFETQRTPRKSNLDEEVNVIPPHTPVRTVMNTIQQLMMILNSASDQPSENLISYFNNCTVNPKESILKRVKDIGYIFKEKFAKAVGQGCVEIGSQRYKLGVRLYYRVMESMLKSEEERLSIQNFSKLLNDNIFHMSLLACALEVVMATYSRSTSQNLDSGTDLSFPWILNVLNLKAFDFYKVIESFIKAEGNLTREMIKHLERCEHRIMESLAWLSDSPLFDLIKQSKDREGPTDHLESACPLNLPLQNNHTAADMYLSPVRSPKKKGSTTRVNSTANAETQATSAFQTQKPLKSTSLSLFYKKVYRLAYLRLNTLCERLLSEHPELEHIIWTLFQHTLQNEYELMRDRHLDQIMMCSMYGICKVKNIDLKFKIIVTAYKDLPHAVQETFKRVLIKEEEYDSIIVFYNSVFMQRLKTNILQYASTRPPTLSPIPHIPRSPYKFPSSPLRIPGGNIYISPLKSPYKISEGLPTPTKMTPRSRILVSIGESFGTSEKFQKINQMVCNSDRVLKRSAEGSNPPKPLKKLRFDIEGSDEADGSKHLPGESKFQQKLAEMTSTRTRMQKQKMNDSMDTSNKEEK

B1: DP-1^172/173: mutant DP-1 protein with residues A172 and L173 changed to glycine (protein, UniProt Q14186 1-410, looked up, variant A172G L173G)
Transcription factor Dp-1: MAKDAGLIEANGELKVFIDQNLSPGKGVVSLVAVHPSTVNPLGKQLLPKTFGQSNVNIAQQVVIGTPQRPAASNTLVVGSPHTPSTHFASQNQPSDSSPWSAGKRNRKGEKNGKGLRHFSMKVCEKVQRKGTTSYNEVADELVAEFSAADNHILPNESAYDQKNIRRRVYDGGNVLMAMNIISKEKKEIKWIGLPTNSAQECQNLEVERQRRLERIKQKQSQLQELILQQIAFKNLVQRNRHAEQQASRPPPPNSVIHLPFIIVNTSKKTVIDCSISNDKFEYLFNFDNTFEIHDDIEVLKRMGMACGLESGSCSAEDLKMARSLVPKALEPYVTEMAQGTVGGVFITTAGSTSNGTRFSASDLTNGADGMLATSSNGSQYSGSRVETPVSYVGEDDEEDDDFNENDEDD

Assays:
DP-1/E2F-1 heterodimer = molecular target: T2, DP-1/E2F-1 heterodimer (Homo sapiens, UniProt Q01094); experiment: binding assay: GST-E2F-1 fusion protein bound to in vitro translated DP-1, peptide competition; settings: peptide included in binding reaction
T2 construct: GST (N); made in house; DP-1 made by in vitro translation
T2 sequence (Q01094 whole entry, the tested form may be a part, one chain of several): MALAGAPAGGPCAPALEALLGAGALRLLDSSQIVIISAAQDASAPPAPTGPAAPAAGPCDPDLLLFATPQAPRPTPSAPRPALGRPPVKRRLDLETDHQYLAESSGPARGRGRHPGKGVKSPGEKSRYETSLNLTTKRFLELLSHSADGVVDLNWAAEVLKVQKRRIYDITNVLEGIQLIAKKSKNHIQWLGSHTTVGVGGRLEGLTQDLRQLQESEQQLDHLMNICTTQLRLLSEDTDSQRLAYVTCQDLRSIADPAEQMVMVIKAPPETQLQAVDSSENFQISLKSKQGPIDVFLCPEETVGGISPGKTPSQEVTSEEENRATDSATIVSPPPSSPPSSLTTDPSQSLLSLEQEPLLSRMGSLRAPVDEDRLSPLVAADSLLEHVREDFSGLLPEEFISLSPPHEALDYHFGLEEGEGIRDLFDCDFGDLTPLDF
Text: To determine the influence of the DEF box region upon the formation of the DP-1/E2F heterodimer, we used a binding assay in which E2F-1, expressed as a GST-E2F-1 fusion protein, bound to in vitro translated DP-1, an assay used previously to measure dimerization between DP and E2F proteins (31,32). Peptides were included in the binding reaction and their ability to compete with wild-type DP-1 for E2F-1 assessed by the amount of DP-1 which remained bound to the E2F-1 fusion protein.
(§1) GST-E2F-1, E2F-2, E2F-3 and pRb have been described previously (27,31,32) and were purified to homogeneity using glutathione Sepharose. In vitro translated DP-1, DP-1^172/173, E2F-1 and E1a were translated as described previously (27,31,32).
(§2) Gel retardation was performed using 5 to 10 μg of either F9 EC or JM cell extract with either an E2F or ATF site as previously described (15). Where fusion proteins were used, about 25 ng of either DP-1 or E2F-1 were used in each binding assay. For in vitro translates, about 6 μl of the translation mix was used in each binding assay. Gel retardation with an E2F binding site taken from the adenovirus E2a promoter was as previously described (15).

[1] = molecular target: T3, E2F DNA binding activity of DP-1/E2F-1 heterodimer (Homo sapiens, UniProt Q01094); experiment: DP-1/E2F-1 DNA binding assay (gel retardation, bacterial fusion proteins); assay type: biochemical; settings: peptide titrated 1, 0.5, 0.1, 0.01 nmol
T3 construct: GST (N); made in house; host or cells: bacterial
T3 sequence (Q01094 whole entry, the tested form may be a part, one chain of several): as above
Text: Since the peptides function as antagonists of the formation of the DP/E2F heterodimer, we reasoned that they may also interfere with E2F DNA binding activity. To address this question, we determined whether the E2F DNA binding activity created in vitro from combining bacterial DP and E2F fusion proteins was affected by the peptides.
As previously shown, the interaction between DP-1 and E2F-1 leads to co-operative DNA binding activity. Peptide H (SEQ ID NO:1) was titrated into the DP-1/E2F-1 DNA binding assay, using 1 nmol, 0.5 nmol, 0.1 nmol and 0.01 nmol of peptide.
as §2

DP-1/E2F-2 heterodimer = molecular target: T4, DP-1/E2F-2 heterodimer (Homo sapiens, UniProt Q14209); experiment: binding assay: GST-E2F-2 bound to in vitro translated DP-1; settings: peptide 5 nmol, 1 nmol, 100 pmol
T4 construct: GST (N); made in house; host or cells: GST fusion purified on glutathione Sepharose; DP-1 made by in vitro translation
T4 sequence (Q14209 whole entry, the tested form may be a part, one chain of several): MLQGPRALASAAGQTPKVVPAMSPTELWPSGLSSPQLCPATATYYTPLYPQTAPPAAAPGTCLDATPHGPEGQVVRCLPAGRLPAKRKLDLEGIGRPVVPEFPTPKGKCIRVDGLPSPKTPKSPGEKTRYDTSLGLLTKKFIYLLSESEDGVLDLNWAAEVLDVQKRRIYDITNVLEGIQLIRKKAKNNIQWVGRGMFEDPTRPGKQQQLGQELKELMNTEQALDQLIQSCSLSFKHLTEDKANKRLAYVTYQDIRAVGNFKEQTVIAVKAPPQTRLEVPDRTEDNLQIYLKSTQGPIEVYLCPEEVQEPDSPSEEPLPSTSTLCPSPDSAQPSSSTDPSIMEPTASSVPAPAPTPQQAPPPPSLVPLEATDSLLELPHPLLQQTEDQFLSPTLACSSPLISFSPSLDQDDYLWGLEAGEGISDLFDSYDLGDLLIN
Text: (§3) FIG. 2 illustrates that peptides containing DEF box sequence prevent DP-1 forming a heterodimer with E2F family members. The ability of in vitro translated DP-1 (indicated by bracket) to bind to GST-E2F-1 (tracks 1,2,3 and 4), GST-E2F-2 (5,6,7 and 8) or GST-E2F-3 (9,10,11 and 12) in the absence (tracks 1,5 and 9) or presence of decreasing levels of peptide H (5 nmol; tracks 2,6 and 10; 1 nmol tracks 3,7 and 11 or 100 pmol tracks 4,8 and 12).
(§4) In the second, the activity of the DEF box antagonist peptide H was assessed on heterodimers formed between DP-1 and the other E2F family members, E2F-2 and E2F-3, which show high conservation with E2F-1 across the DEF box. […] We conclude therefore that peptides representing sequence derived from the DEF box function as specific antagonists of the DP-1/E2F heterodimer.
as §1

DP-1/E2F-3 heterodimer = molecular target: T5, DP-1/E2F-3 heterodimer (Homo sapiens, UniProt O00716); experiment: binding assay: GST-E2F-3 bound to in vitro translated DP-1; settings: peptide 5 nmol, 1 nmol, 100 pmol
T5 construct: GST (N); made in house; host or cells: GST fusion purified on glutathione Sepharose; DP-1 made by in vitro translation
T5 sequence (O00716 whole entry, the tested form may be a part, one chain of several): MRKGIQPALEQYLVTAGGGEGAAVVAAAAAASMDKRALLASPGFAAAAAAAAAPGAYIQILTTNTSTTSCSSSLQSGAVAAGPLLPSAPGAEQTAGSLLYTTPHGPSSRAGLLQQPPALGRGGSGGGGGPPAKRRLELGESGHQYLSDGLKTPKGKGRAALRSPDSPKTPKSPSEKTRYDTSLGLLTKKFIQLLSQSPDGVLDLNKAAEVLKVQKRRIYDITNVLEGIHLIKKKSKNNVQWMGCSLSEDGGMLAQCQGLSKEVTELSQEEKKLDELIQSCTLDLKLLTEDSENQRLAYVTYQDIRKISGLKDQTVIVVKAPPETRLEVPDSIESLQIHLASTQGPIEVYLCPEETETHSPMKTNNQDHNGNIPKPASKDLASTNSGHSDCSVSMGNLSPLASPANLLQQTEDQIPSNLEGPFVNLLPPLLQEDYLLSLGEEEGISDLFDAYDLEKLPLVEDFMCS
Text: as §3, §4, §1

[2] = molecular target: T1, pRb / adenovirus E1a protein interaction; experiment: specificity control: binding of pRb to in vitro translated adenovirus E1a protein; settings: unrelated protein-protein interaction control
Experimental: To evaluate the specificity of this effect, we undertook two controls. Firstly, the effect of DEF box derived peptides on an unrelated but well characterised protein-protein interaction was assessed, namely the binding of pRb to the adenovirus E1a protein (34). The E1a protein, when provided in the assay as an in vitro translate, specifically bound to pRb. […] Secondly, unrelated peptides representing other regions of DP-1 or subdomains of peptide H were assessed in the binding reaction. […] Overall, the results argue that peptide H antagonises the interaction between DP-1 and E2F-1 in the formation of a heterodimer.
as §1

[3] = system: physiological E2F DNA binding activity (DP-1/E2F heterodimer) in F9 embryonal carcinoma cell extracts; experiment: gel retardation, E2F site, F9 EC cell extracts; assay type: biochemical; settings: for inactivation of E2F DNA binding activity in F9 EC cell extracts: F9 EC cell extract, peptide up to 1 nmol
Text: Because the DEF box peptides can antagonise DNA binding activity of the DP-1/E2F heterodimer formed in vitro, we went on to establish their effects on physiological E2F. For this experiment, we used extracts prepared from F9 embryonal carcinoma (EC) cells, since these cells contain high levels of endogenous E2F DNA binding activity as a DP-1/E2F-heterodimer (26).
(§5) In a similar fashion to its effect upon the in vitro formed activity, the physiological DNA binding activity in F9 EC cell extracts was inactivated upon titration of peptide H (using the same concentrations mentioned above), but not by H1. This effect was specific for E2F since no effect on the unrelated DNA binding activity ATF was observed under similar conditions.
as §2

ATF DNA binding activity = experiment: gel retardation, ATF site (specificity control); assay type: biochemical; settings: similar conditions as E2F assay
Experimental: as §5, §2

DP-1/E2F-1 interaction = molecular target: T6, DP-1/E2F-1 interaction (UniProt Q01094+Q08639, A172G/L173G); experiment: yeast two-hybrid assay LexA-DP-1 / GAL4 activation domain-E2F-1; assay type: cell-based; settings: A172 and L173 changed to glycine
T6 construct: expressed in transfected cells; host or cells: yeast strain CTY10-5d
T6 sequence (Q01094 whole entry, the tested form may be a part): as the sequence (Q01094 whole entry, the tested form may be a part, one chain of several) above
T6 sequence (Q08639 whole entry A172G/L173G, the tested form may be a part): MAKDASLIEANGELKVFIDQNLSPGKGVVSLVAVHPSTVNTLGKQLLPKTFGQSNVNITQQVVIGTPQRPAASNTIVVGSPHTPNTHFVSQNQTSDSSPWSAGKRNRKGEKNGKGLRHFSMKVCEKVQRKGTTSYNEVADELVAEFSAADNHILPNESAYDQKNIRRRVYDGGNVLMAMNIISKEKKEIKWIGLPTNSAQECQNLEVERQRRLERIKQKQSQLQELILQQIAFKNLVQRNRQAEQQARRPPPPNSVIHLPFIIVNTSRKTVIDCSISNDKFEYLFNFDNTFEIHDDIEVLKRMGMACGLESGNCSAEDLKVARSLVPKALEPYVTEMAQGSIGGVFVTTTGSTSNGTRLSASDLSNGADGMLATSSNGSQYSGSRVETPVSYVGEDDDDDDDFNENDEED
Text: (§6) To study the role of the DEF box region in the context of the wild-type DP-1 protein, we took advantage of a yeast assay previously used to assess the properties of the DP-1/E2F heterodimer (23,31). When assayed in the context of two-hybrid proteins, with DP-1 is fused the LexA DNA binding domain and E2F-1 to the transcriptional activation domain of GAL4, transcriptional stimulation of a reporter construct driven by LEXA DNA binding sites was apparent only when both proteins were expressed together. Similarly, transcriptional activation of a reporter gene driven by physiological E2F DNA binding sites, in p4xWT.CYC1 (23,31), was dependent upon the presence of both proteins.
(§7) The yeast two-hybrid expression plasmids used were PLEX(HIS) which contains the complete LexA coding sequence, pGAD.L6 which contains the Gal 4 transcription activation domain. pLEX(HIS).DP-1 contains the murine DP-1 fused to the C-terminus of the LexA coding sequence and GAD.E2F-1 the human E2F-1 downstream of the Gal4 activation domain; all constructs were as described previously (23,31), apart from pLEX-DP-1/MT which contained DP-1 with residues 172 and 173 altered to glycine residues. Yeast strain CTY10-5d was used for the two-hybrid assay and W3031a, which carries p4xWT.CYC 1, for the E2F site-dependent transcription assay (23,31).

[4] = system: E2F site-dependent transcription; experiment: yeast E2F binding site reporter assay (p4xWT.CYC1); assay type: cell-based; settings: A172 and L173 changed to glycine
Text: as §6, §7

Molecule	effect on binding of DP-1 to E2F-1 (formation of DP-1/E2F-1 heterodimer) (DP-1/E2F-1 heterodimer)	inhibition of DP-1/E2F-1 DNA binding activity [1]	inactivation of E2F DNA binding activity in F9 EC cell extracts [3]	other results
H6: shorter DEF box peptide lacking activity (RRVYDALNVLMAMN) [Peptide H6]	lacked activity; also recorded: failed to affect formation of the DP-1/E2F-1 heterodimer	did not interfere with DNA binding activity	–	–
KNIRRRVYDALNVLMAMNIISKEKKEIKWIGLPTNSA [Peptide H, complete DEF box region, residues 163 to 199 of DP-1, 37 residues]	interfere with the binding efficiency of DP-1 and E2F-1	Clear inhibition of DNA binding activity	inactivated	effect on ability of E2F-2 to bind to DP-1 (DP-1/E2F-2 heterodimer): interfered specifically; effect on ability of E2F-3 to bind to DP-1 (DP-1/E2F-3 heterodimer): interfered specifically; effect on binding of pRb to E1a [2]: no apparent effect; sensitivity of pocket protein-E2F complex relative to free E2F heterodimer ([3]; slower migrating E2F complex): less sensitive; effect on ATF DNA binding activity (ATF DNA binding activity): no effect
17: DP-1 peptide taken from DCB1, C-terminal side of the DEF homology region (EVERQRRLERIKQKQ) [Peptide 17, reference compound]	failed to have any noticeable effect	did not interfere with DNA binding activity	–	–
H1: peptide derived from the DEF box region which failed to affect heterodimer formation (RRRVYDALNVL) [Peptide H1]	failed to affect formation of the DP-1/E2F-1 heterodimer	did not interfere with DNA binding activity	not	–
RRRAYDALNALMAMNIISK [Peptide H2mt1, mutant H2 peptide, V169 and V175 altered]	–	–	inactivated the E2F site DNA binding activity in F9 EC cell extracts with similar efficiency	–
15: DP-1 peptide taken from DCB1, C-terminal side of the DEF homology region (NLVQRNRQAEQQARR) [Peptide 15, reference compound]	failed to have any noticeable effect	did not interfere with DNA binding activity	–	–
RVYDALNVLMAMNIIS [Peptide H5, 16 residues within H2]	retained antagonistic activity	lower activity compared to H2 and H7	–	–
RARVYAALNVLMAMNIISK [Peptide H2mt2, mutant H2 peptide]	–	–	retained some activity, but less than wild-type H2	–
Peptide 18: contains the N-terminal sequence taken from the DEF homology region (NESAYDQKNIRR) [reference compound]	failed to have any noticeable effect	did not interfere with DNA binding activity	–	–
NVLMAMNIISKEKKEIKWIG [Peptide H3]	–	lower activity compared to H2 and H7	–	–
B1	–	–	–	reduction of activity relative to wild-type DP-1 in two-hybrid assay (DP-1/E2F-1 interaction): about 50%; reduction of response of E2F binding site reporter [4]: about 50%
